Measurements from patent US20210070881A1 (DENALI THERAPEUTICS, published 2021).
Numbering of substitutions follows the chain as printed. Like-named read-outs stand apart in the source and are kept apart here. Each block holds one binder with its values, some of them ahead of it.

Assays:
[1] = biological target: T1, recombinant BACE1 (BACE1 extracellular domain, R&D Systems Cat#931-AS) (UniProt P56817 22-457); experiment: SPR Biacore
T1 construct: extracellular domain; also called BACE1 extracellular domain protein
T1 sequence (P56817 22-457): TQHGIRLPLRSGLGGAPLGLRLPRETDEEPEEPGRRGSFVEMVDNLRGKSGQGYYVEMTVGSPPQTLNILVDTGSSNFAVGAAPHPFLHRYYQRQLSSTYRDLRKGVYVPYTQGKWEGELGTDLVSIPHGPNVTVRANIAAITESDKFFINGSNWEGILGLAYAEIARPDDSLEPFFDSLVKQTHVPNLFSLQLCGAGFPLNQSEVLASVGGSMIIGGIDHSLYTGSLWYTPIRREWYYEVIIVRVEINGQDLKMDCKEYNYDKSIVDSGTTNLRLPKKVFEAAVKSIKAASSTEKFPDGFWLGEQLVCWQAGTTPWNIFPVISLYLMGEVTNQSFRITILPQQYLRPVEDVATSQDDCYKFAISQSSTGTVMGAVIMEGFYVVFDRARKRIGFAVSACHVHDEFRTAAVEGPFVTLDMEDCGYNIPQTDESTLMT

[2] = biological target: T1, recombinant BACE1 (BACE1 extracellular …); experiment: SPR Biacore; remark: listed apart in the source

B1: hu2H8v1 (antibody, V domains shown)
VH: QVQLVQSGAEVKKPGASVKVSCKASGYTFTNFWIHWVRQAPGQGLEWMGMIDPSDSYTKYNQKFKARVTMTRDTSTSTTYMELSSLRSEDTAVYYCARSGVAFPYWGQGTLVTVSS
VL: DIQMTQSPSSLSASVGDRVTITCKASQDVGRNVAWYQQKPGKAPKLLIYSASHRYSGVPSRFSGSGSGTDFTLTISSLQPEDFATYYCQQYNSYPYTFGQGTKVEIK
notes: humanized; also called hu2H8_HC1 + hu2H8_LC1
Kd [1]: 135 nM

B2: hu2H8v2 (antibody, V domains shown)
VH: B1 VH with V37L
VL: B1 VL
notes: humanized; also called hu2H8_HC2 + hu2H8_LC1
Kd [1]: 185 nM

B3: hu2H8v3 (antibody, V domains shown)
VH: B1 VH with V37L, R72V
VL: B1 VL
notes: humanized; also called hu2H8_HC3 + hu2H8_LC1
Kd [1]: 172 nM

B5: 2H8.34 (antibody, human IgG1, V domains shown)
VH: EIQLQQSGTELVRPGTSVKLSCKASGYTFTNYWMHWVKQRPGQGLEWIGMIDPSAAYTNYNQNFKGKATLTVDTSSGTAYMQLSSLTSEDSAVYYCARSGVAFPYWGQGTTVTVSS
VL: DIQMTQSQKFMSKSVGDRVSVTCKASQNVGSNVAWYQQKSGQSPKSLIYSASHRYSGVPDRFTGSGSGTDFTLTISNVQSEDLADYFCQQYNSYPYTFGGGTRLEIK
notes: human IgG1/kappa; also called 2H8_HCvar4 + 2H8_LCvar6
Kd [2]: 25.5 nM
koff [2]: 0.000425 s⁻¹
kon [2]: 16700 M⁻¹ s⁻¹

B6: 2H8.16 (antibody, human IgG1, V domains shown)
VH: B5 VH
VL: B5 VL with K13T, V15I, S31T, S40P, R54W, D85E, R103K
notes: human IgG1/kappa; also called 2H8_HCvar4 + 2H8_LCvar3
Kd [2]: 37.8 nM
koff [2]: 0.000631 s⁻¹
kon [2]: 16700 M⁻¹ s⁻¹

B7: 2H8.21 (antibody, human IgG1, V domains shown)
VH: EVQLQQSGAELVRPGTSVKLSCKASGYTFTSYWIHWVKQRPGQGLEWIGMIDPSDSYTKYNQKFKDKATLTVDTSSSTTYMHLSSLTSEDSAVYYCARSGVAFPYWGQRTLVTVSA
VL: B5 VL with Q3V, K13T, V21I, S31T, S40P, S46A, H53Y, D85E, R103K
notes: human IgG1/kappa; also called 2H8_HCvar3 + 2H8_LCvar4
Kd [2]: 90.5 nM
koff [2]: 0.00104 s⁻¹
kon [2]: 11400 M⁻¹ s⁻¹

B8: 2H8.29 (antibody, human IgG1, V domains shown)
VH: EVQLQQPGAEVVRPGTSVKLSCKASGYTFTNYWMHWVKQRPGQGLEWIGMIDPSDNYTKYNQKLKGKATLTVDTSSSTANMHVNSLTSEDSAVYFCARSGVAFPYWGQGTLVTVSA
VL: B5 VL with Q3V, K13T, S31T, S46A, D85E, R103K
notes: human IgG1/kappa; also called 2H8_HCvar5 + 2H8_LCvar5
Kd [2]: 18.6 nM
koff [2]: 0.000255 s⁻¹
kon [2]: 13700 M⁻¹ s⁻¹

B10: 2H8.30 (antibody, human IgG1, V domains shown)
VH: EVQLQQSGAELVRPGTSVKLSCKASGYTFNNYWMHWVKQRPGQGLEWIGMIDPSDDDIKNNQKFKGKATLTVDTSSSTAYMQLISLTSEDSAVYYCARSGVALPYWGQGTLVTVSA
VL: B5 VL with Q3V, K13T, S31T, S46A, D85E, R103K
notes: human IgG1/kappa; also called 2H8_HCvar6 + 2H8_LCvar5
Kd [2]: 21.2 nM
koff [2]: 0.000274 s⁻¹
kon [2]: 12900 M⁻¹ s⁻¹

B13: 2H8.15 (antibody, human IgG1, V domains shown)
VH: B7 VH
VL: B5 VL with K13T, V15I, S31T, S40P, R54W, D85E, R103K
notes: human IgG1/kappa; also called 2H8_HCvar3 + 2H8_LCvar3
Kd [2]: 22.8 nM
koff [2]: 0.000278 s⁻¹
kon [2]: 12200 M⁻¹ s⁻¹

B14: 2H8.26 (antibody, human IgG1, V domains shown)
VH: B5 VH with I2V, S7P, V37I, A55D, A56T, N59K, Y60F, G77S, S84N
VL: B5 VL with Q3V, K13T, S31T, S46A, D85E, R103K
notes: human IgG1/kappa; also called 2H8_HCvar2 + 2H8_LCvar5
Kd [2]: 18.3 nM
koff [2]: 0.000312 s⁻¹
kon [2]: 17000 M⁻¹ s⁻¹

B15: 2H8.08 (antibody, human IgG1, V domains shown)
VH: B5 VH with I2V, S7P, V37I, A55D, A56T, N59K, Y60F, G77S, S84N
VL: B5 VL with Q3V, K13T, S31T, S40P, S46A, D85E, P95M, R103K
notes: human IgG1/kappa; also called 2H8_HCvar2 + 2H8_LCvar2
Kd [2]: 20.9 nM
koff [2]: 0.000299 s⁻¹
kon [2]: 14300 M⁻¹ s⁻¹

B16: 2H8.36 (antibody, human IgG1, V domains shown)
VH: B10 VH
VL: B5 VL
notes: human IgG1/kappa; also called 2H8_HCvar6 + 2H8_LCvar6
Kd [2]: 23.5 nM
koff [2]: 0.000273 s⁻¹
kon [2]: 11600 M⁻¹ s⁻¹

B20: 2H8.18 (antibody, human IgG1, V domains shown)
VH: B10 VH
VL: B5 VL with K13T, V15I, S31T, S40P, R54W, D85E, R103K
notes: human IgG1/kappa; also called 2H8_HCvar6 + 2H8_LCvar3
Kd [2]: 32.4 nM
koff [2]: 0.00039 s⁻¹
kon [2]: 12000 M⁻¹ s⁻¹

B22: 2H8.10 (antibody, human IgG1, V domains shown)
VH: B5 VH
VL: B5 VL with Q3V, K13T, S31T, S40P, S46A, D85E, P95M, R103K
notes: human IgG1/kappa; also called 2H8_HCvar4 + 2H8_LCvar2
Kd [2]: 62 nM
koff [2]: 0.000878 s⁻¹
kon [2]: 14200 M⁻¹ s⁻¹

B25: 2H8.12 (antibody, human IgG1, V domains shown)
VH: B10 VH
VL: B5 VL with Q3V, K13T, S31T, S40P, S46A, D85E, P95M, R103K
notes: human IgG1/kappa; also called 2H8_HCvar6 + 2H8_LCvar2
Kd [2]: 171 nM
koff [2]: 0.00166 s⁻¹
kon [2]: 9680 M⁻¹ s⁻¹

B26: 2H8.28 (antibody, human IgG1, V domains shown)
VH: B5 VH
VL: B5 VL with Q3V, K13T, S31T, S46A, D85E, R103K
notes: human IgG1/kappa; also called 2H8_HCvar4 + 2H8_LCvar5
Kd [2]: 34 nM
koff [2]: 0.00062 s⁻¹
kon [2]: 18200 M⁻¹ s⁻¹

B27: 2H8.23 (antibody, human IgG1, V domains shown)
VH: B8 VH
VL: B5 VL with Q3V, K13T, V21I, S31T, S40P, S46A, H53Y, D85E, R103K
notes: human IgG1/kappa; also called 2H8_HCvar5 + 2H8_LCvar4
Kd [2]: 79.4 nM
koff [2]: 0.00101 s⁻¹
kon [2]: 12700 M⁻¹ s⁻¹

B28: 2H8.19 (antibody, human IgG1, V domains shown)
VH: B7 VH with A9P, R13K, T16A, S31N, Y32F, V37L, D66A
VL: B5 VL with Q3V, K13T, V21I, S31T, S40P, S46A, H53Y, D85E, R103K
notes: human IgG1/kappa; also called 2H8_HC + 2H8_LCvar4
Kd [2]: 42.5 nM
koff [2]: 0.000674 s⁻¹
kon [2]: 15900 M⁻¹ s⁻¹

B31: 2H8.24 (antibody, human IgG1, V domains shown)
VH: B10 VH
VL: B5 VL with Q3V, K13T, V21I, S31T, S40P, S46A, H53Y, D85E, R103K
notes: human IgG1/kappa; also called 2H8_HCvar6 + 2H8_LCvar4
Kd [2]: 183 nM
koff [2]: 0.00243 s⁻¹
kon [2]: 13300 M⁻¹ s⁻¹

B32: 2H8.22 (antibody, human IgG1, V domains shown)
VH: B5 VH
VL: B5 VL with Q3V, K13T, V21I, S31T, S40P, S46A, H53Y, D85E, R103K
notes: human IgG1/kappa; also called 2H8_HCvar4 + 2H8_LCvar4
Kd [2]: 304 nM
koff [2]: 0.0109 s⁻¹
kon [2]: 35900 M⁻¹ s⁻¹

B34: 2H8.20 (antibody, human IgG1, V domains shown)
VH: B5 VH with I2V, S7P, V37I, A55D, A56T, N59K, Y60F, G77S, S84N
VL: B5 VL with Q3V, K13T, V21I, S31T, S40P, S46A, H53Y, D85E, R103K
notes: human IgG1/kappa; also called 2H8_HCvar2 + 2H8_LCvar4
Kd [2]: 93.4 nM
koff [2]: 0.00147 s⁻¹
kon [2]: 15800 M⁻¹ s⁻¹

The next lines start with the values.

Kd [2]: 17.9 nM
koff [2]: 0.000289 s⁻¹
kon [2]: 16100 M⁻¹ s⁻¹
B4: 2H8.03 (antibody, human IgG1, V domains shown)
VH: B7 VH
VL: B5 VL with Q3V, R18T, N28D, S31R
notes: human IgG1/kappa; also called 2H8_HCvar3 + 2H8_LC

Kd [2]: 17 nM
koff [2]: 0.00024 s⁻¹
kon [2]: 14100 M⁻¹ s⁻¹
B9: 2H8.27 (antibody, human IgG1, V domains shown)
VH: B7 VH
VL: B5 VL with Q3V, K13T, S31T, S46A, D85E, R103K
notes: human IgG1/kappa; also called 2H8_HCvar3 + 2H8_LCvar5

Kd [2]: 19.1 nM
koff [2]: 0.000456 s⁻¹
kon [2]: 23900 M⁻¹ s⁻¹
B11: 2H8.40 (antibody, human IgG1, V domains shown)
VH: B5 VH
VL: B5 VL with Q3L, K13T, S31R, K39I, S46P, A84V, D85E, Y86F, R103K
notes: human IgG1/kappa; also called 2H8_HCvar4 + 2H8_LCvar7

Kd [2]: 18.3 nM
koff [2]: 0.000228 s⁻¹
kon [2]: 12500 M⁻¹ s⁻¹
B12: 2H8.09 (antibody, human IgG1, V domains shown)
VH: B7 VH
VL: B5 VL with Q3V, K13T, S31T, S40P, S46A, D85E, P95M, R103K
notes: human IgG1/kappa; also called 2H8_HCvar3 + 2H8_LCvar2

Kd [2]: 17.8 nM
koff [2]: 0.000329 s⁻¹
kon [2]: 18500 M⁻¹ s⁻¹
B17: 2H8.38 (antibody, human IgG1, V domains shown)
VH: B5 VH with I2V, S7P, V37I, A55D, A56T, N59K, Y60F, G77S, S84N
VL: B5 VL with Q3L, K13T, S31R, K39I, S46P, A84V, D85E, Y86F, R103K
notes: human IgG1/kappa; also called 2H8_HCvar2 + 2H8_LCvar7

Kd [2]: 16 nM
koff [2]: 0.000264 s⁻¹
kon [2]: 16500 M⁻¹ s⁻¹
B18: 2H8.06 (antibody, human IgG1, V domains shown)
VH: B10 VH
VL: B5 VL with Q3V, R18T, N28D, S31R
notes: human IgG1/kappa; also called 2H8_HCvar6 + 2H8_LC

Kd [2]: 15.2 nM
koff [2]: 0.000251 s⁻¹
kon [2]: 16500 M⁻¹ s⁻¹
B19: 2H8.25 (antibody, human IgG1, V domains shown)
VH: B7 VH with A9P, R13K, T16A, S31N, Y32F, V37L, D66A
VL: B5 VL with Q3V, K13T, S31T, S46A, D85E, R103K
notes: human IgG1/kappa; also called 2H8_HC + 2H8_LCvar5

Kd [2]: 19.2 nM
koff [2]: 0.000291 s⁻¹
kon [2]: 15200 M⁻¹ s⁻¹
B21: 2H8.14 (antibody, human IgG1, V domains shown)
VH: B5 VH with I2V, S7P, V37I, A55D, A56T, N59K, Y60F, G77S, S84N
VL: B5 VL with K13T, V15I, S31T, S40P, R54W, D85E, R103K
notes: human IgG1/kappa; also called 2H8_HCvar2 + 2H8_LCvar3

Kd [2]: 19.8 nM
koff [2]: 0.000308 s⁻¹
kon [2]: 15500 M⁻¹ s⁻¹
B23: 2H8.13 (antibody, human IgG1, V domains shown)
VH: B7 VH with A9P, R13K, T16A, S31N, Y32F, V37L, D66A
VL: B5 VL with K13T, V15I, S31T, S40P, R54W, D85E, R103K
notes: human IgG1/kappa; also called 2H8_HC + 2H8_LCvar3

Kd [2]: 17.7 nM
koff [2]: 0.000235 s⁻¹
kon [2]: 13300 M⁻¹ s⁻¹
B24: 2H8.11 (antibody, human IgG1, V domains shown)
VH: B8 VH
VL: B5 VL with Q3V, K13T, S31T, S40P, S46A, D85E, P95M, R103K
notes: human IgG1/kappa; also called 2H8_HCvar5 + 2H8_LCvar2

Kd [2]: 20 nM
koff [2]: 0.000294 s⁻¹
kon [2]: 14700 M⁻¹ s⁻¹
B29: 2H8.07 (antibody, human IgG1, V domains shown)
VH: B7 VH with A9P, R13K, T16A, S31N, Y32F, V37L, D66A
VL: B5 VL with Q3V, K13T, S31T, S40P, S46A, D85E, P95M, R103K
notes: human IgG1/kappa; also called 2H8_HC + 2H8_LCvar2

Kd [2]: 11.8 nM
koff [2]: 0.000171 s⁻¹
kon [2]: 14500 M⁻¹ s⁻¹
B30: 2H8.33 (antibody, human IgG1, V domains shown)
VH: B7 VH
VL: B5 VL
notes: human IgG1/kappa; also called 2H8_HCvar3 + 2H8_LCvar6

Kd [2]: 19 nM
koff [2]: 0.000259 s⁻¹
kon [2]: 13600 M⁻¹ s⁻¹
B33: 2H8.17 (antibody, human IgG1, V domains shown)
VH: B8 VH
VL: B5 VL with K13T, V15I, S31T, S40P, R54W, D85E, R103K
notes: human IgG1/kappa; also called 2H8_HCvar5 + 2H8_LCvar3
